The source of these data is paper PMC9408559, “Genome-Wide Analysis of the RAV Gene Family in Wheat and Functional Identification of TaRAV1 in Salt Stress”.

For the data set, the target named is TaRAV1 (GST fusion) (Triticum aestivum, UniProt A0A3B6A018 1-392). The data set can be described thus: EMSA; LightShift Chemiluminescent EMSA kit (Pierce), manufacturer's protocol; buffer, salt, pH and temperature not given. Particulars: protein: recombinant; tags: GST; label: biotin. A general note: A gel shift assay detects complexes by their altered migration in electrophoresis.
TaRAV1 (GST fusion), sequence (A0A3B6A018 entry or part of it): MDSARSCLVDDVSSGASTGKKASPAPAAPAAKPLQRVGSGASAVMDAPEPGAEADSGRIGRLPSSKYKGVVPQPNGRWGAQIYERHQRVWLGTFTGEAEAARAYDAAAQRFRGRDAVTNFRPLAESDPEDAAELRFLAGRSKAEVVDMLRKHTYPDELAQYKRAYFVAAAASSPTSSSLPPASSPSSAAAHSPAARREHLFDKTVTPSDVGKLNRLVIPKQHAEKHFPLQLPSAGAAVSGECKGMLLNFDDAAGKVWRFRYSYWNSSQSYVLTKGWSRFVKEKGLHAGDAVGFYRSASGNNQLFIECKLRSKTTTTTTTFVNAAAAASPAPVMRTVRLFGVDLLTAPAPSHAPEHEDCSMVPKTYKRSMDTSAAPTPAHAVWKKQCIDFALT

B1: probe with CAACA and CACCTG elements (dsDNA)
DNA 1: CGGCAACAATAAACACCTGACTCGACGGCAACAATAAACACCTGAC
DNA 2: GTCAGGTGTTTATTGTTGCCGTCGAGTCAGGTGTTTATTGTTGCCG
Consider B1, for which the binding result is on record as “binds”.

B2: probe with mutated CAACA and CACCTG elements (dsDNA)
DNA 1: CGGCATGTATAAACAATAGACTCGACGGCATGTATAAACAATAGAC
DNA 2: GTCTATTGTTTATACATGCCGTCGAGTCTATTGTTTATACATGCCG
For B2, the binding result is recorded as “no binding”.
